# ± gives the uncertainty stated by the source.
# Experiment: self-splicing fitness, log relative to wild type (ln ratio); higher = more splicing; Tetrahymena group I intron in knt gene, E. coli kanamycin selection, DiMSum; sequences stand for … in CUCUCU…GGAGGGAAAAGUUAUCAGGCAUGCACCUGGUAGCUAGUCUUUAAACCAAUAGAUUGCAUCGGUUUAAAAGGCAAGACCGUCAAAUUGCGGGAAAGGGGUCAACAGCCGUUCAGUACCAAGUCUCAGGGGAAACUUUGAGAUGGCCUUGCAAAGGGUAUGGUAAUAAGCUGACGGACAUGGUCCUAACCACGCAGCCAAGUCCUAAGUCAACAGAUCUUCUGUUGAUAUGGAUGCAGUUCACAGACUAAAUGUCGGUCGGGGAAGAUGUAUUCUUCUCAUAAGAUAUAGUCGGACCUCUCCUUAAUGGGAGCUAGCGGAUGAAGUGAUGCAACACUGGAGCCGCUGGGAACUAAUUUGUAUGCGAAAGUAUAUUGAUUAGUUUUGGAGUACUCGUGGUCG
# How it was run: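 Fitness was computed with DiMSum as the error-weighted combination of replicate fold changes, kanamycin versus none, each normalised to wild type. The library randomised all eight intron nucleotides of the P1ex region, with the intron placed in the knt kanamycin-resistance gene on pET-22b(+) in E. coli BL21(DE3). Six replicate transformations were grown overnight at 37°C or 30°C on LB agar with or without 25 μg/mL kanamycin, plus 100 μg/mL carbenicillin, 50 μM IPTG and 0.2% rhamnose. Pooled colonies were amplicon-sequenced on an Illumina HiSeq 2500.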
Sequence,self-splicing fitness (ln) (30 °C),self-splicing fitness (ln) (37 °C)
CUUCAGCAAUAUUACGAAAA,-2.29 ± 0.2,-3.03 ± 0.35
CUUCAGCAAUAUUACGACCU,-2.42 ± 0.21,-1.7 ± 0.27
CUUCAGCAAUAUUACGAGCC,-2.29 ± 0.21,-1.59 ± 0.3
CUUCAGCAAUAUUACGAGGC,-4.72 ± 0.41,-1.59 ± 0.4
CUUCAGCAAUAUUACGCACG,-1.02 ± 0.085,-0.456 ± 0.13
CUUCAGCAAUAUUACGCGUA,-2.92 ± 0.18,-2.46 ± 0.17
CUUCAGCAAUAUUACGCUAG,-3.22 ± 0.26,-1.34 ± 0.19
CUUCAGCAAUAUUACGCUCG,-2.42 ± 0.15,-0.933 ± 0.26
CUUCAGCAAUAUUACGGAAU,-1.46 ± 0.13,-1.17 ± 0.14
CUUCAGCAAUAUUACGGAGA,-3.47 ± 0.21,-3.04 ± 0.19
CUUCAGCAAUAUUACGGGGA,-3.36 ± 0.27,-1.65 ± 0.18
CUUCAGCAAUAUUACGGUAA,-1.67 ± 0.23,-1.88 ± 0.17
CUUCAGCAAUAUUACGGUCA,-2.2 ± 0.25,-3.2 ± 0.24
CUUCAGCAAUAUUACGUUGU,-3.52 ± 0.18,-2.92 ± 0.28
CUUGAGCAAUAUUACGACUU,-2.53 ± 0.37,-3.56 ± 0.43
CUUGAGCAAUAUUACGAGCA,-2.65 ± 0.41,-3.07 ± 0.33
CUUGAGCAAUAUUACGAGGA,-3.08 ± 0.38,
CUUGAGCAAUAUUACGAUAA,-3.27 ± 0.31,-0.951 ± 0.37
CUUGAGCAAUAUUACGAUGU,-2.24 ± 0.14,-3.43 ± 0.26
CUUGAGCAAUAUUACGCAGG,-3.46 ± 0.25,-3.55 ± 0.35
CUUGAGCAAUAUUACGCUAA,-4.05 ± 0.31,-3.36 ± 0.35
CUUGAGCAAUAUUACGCUAU,-3.44 ± 0.34,-2.58 ± 0.49
CUUGAGCAAUAUUACGCUCU,-2.57 ± 0.5,-1.13 ± 0.33
CUUGAGCAAUAUUACGGAUU,-4.83 ± 0.45,-3.23 ± 0.29
CUUGAGCAAUAUUACGGCAU,,-1.93 ± 0.28
CUUGAGCAAUAUUACGGGCA,-3.94 ± 0.35,-1.91 ± 0.21

Sequence,self-splicing fitness (ln) (30 °C),self-splicing fitness (ln) (37 °C)
CUUGAGCAAUAUUACGGUAA,,-2.99 ± 0.47
CUUGAGCAAUAUUACGGUAC,-2.24 ± 0.2,-2.16 ± 0.42
CUUGAGCAAUAUUACGUAAU,-2.79 ± 0.18,-2.81 ± 0.24
CUUGAGCAAUAUUACGUAGU,-3.28 ± 0.3,-2.11 ± 0.33
CUUGAGCAAUAUUACGUCAU,-3.58 ± 0.29,-2.88 ± 0.31
CUUGAGCAAUAUUACGUGAC,-2.55 ± 0.24,-1.08 ± 0.19
CUUGAGCAAUAUUACGUGUA,-2.71 ± 0.14,-2.84 ± 0.2
CUUGAGCAAUAUUACGUGUG,-2.12 ± 0.07,-0.901 ± 0.073
CUUUAGCAAUAUUACGAACU,-3.28 ± 0.24,-2.54 ± 0.19
CUUUAGCAAUAUUACGCAAG,-2.43 ± 0.22,-1.67 ± 0.3
CUUUAGCAAUAUUACGCGCU,-3.14 ± 0.25,-0.469 ± 0.17
CUUUAGCAAUAUUACGCGUA,-3.14 ± 0.26,-3.28 ± 0.35
CUUUAGCAAUAUUACGCUAC,-2.83 ± 0.35,
CUUUAGCAAUAUUACGGCAA,-2.06 ± 0.24,-1.98 ± 0.28
CUUUAGCAAUAUUACGGGAU,-3.8 ± 0.22,-2.67 ± 0.19
CUUUAGCAAUAUUACGGUGU,-3.52 ± 0.21,-3.12 ± 0.25
CUUUAGCAAUAUUACGUACG,-0.271 ± 0.098,0.109 ± 0.12
CUUUAGCAAUAUUACGUCGG,-1.79 ± 0.11,-1.25 ± 0.12
CUUUAGCAAUAUUACGUUAU,-3.64 ± 0.23,-1.79 ± 0.19
GAAAAGCAAUAUUACGACAU,-0.184 ± 0.011,0.116 ± 0.032
GAAAAGCAAUAUUACGACGU,0.263 ± 0.088,0.769 ± 0.099
GAAAAGCAAUAUUACGAUUU,-0.346 ± 0.052,-0.372 ± 0.073
GAAAAGCAAUAUUACGCCCU,0.325 ± 0.12,-0.233 ± 0.14
GAAAAGCAAUAUUACGCGAC,,0.397 ± 0.26
GAAAAGCAAUAUUACGGACC,-0.128 ± 0.094,-0.398 ± 0.15
GAAAAGCAAUAUUACGGAUU,-2.03 ± 0.09,-1.03 ± 0.11

Sequence,self-splicing fitness (ln) (30 °C),self-splicing fitness (ln) (37 °C)
GAAAAGCAAUAUUACGGCAG,-3.02 ± 0.25,-1.96 ± 0.23
GAAAAGCAAUAUUACGGCGC,0.706 ± 0.11,0.245 ± 0.18
GAAAAGCAAUAUUACGGUCU,-0.737 ± 0.057,-0.398 ± 0.072
GAAAAGCAAUAUUACGGUGU,-2.55 ± 0.096,-0.927 ± 0.11
GAAAAGCAAUAUUACGGUUC,-3.18 ± 0.11,-2.88 ± 0.16
GAAAAGCAAUAUUACGGUUG,-2.39 ± 0.088,-1.42 ± 0.12
GAAAAGCAAUAUUACGUCGA,-1.14 ± 0.088,-0.0848 ± 0.12
GAAAAGCAAUAUUACGUCUG,-0.835 ± 0.068,-0.219 ± 0.084
GAAAAGCAAUAUUACGUCUU,-0.419 ± 0.068,0.391 ± 0.086
GAAAAGCAAUAUUACGUGCA,-0.843 ± 0.073,-0.0478 ± 0.085
GAAAAGCAAUAUUACGUUCU,-3.87 ± 0.17,-3.19 ± 0.18
GAACAGCAAUAUUACGAAUA,-1.48 ± 0.098,-0.755 ± 0.11
GAACAGCAAUAUUACGACAC,-0.422 ± 0.08,0.0163 ± 0.1
GAACAGCAAUAUUACGACUA,-0.346 ± 0.085,-0.46 ± 0.097
GAACAGCAAUAUUACGCAUG,-1.18 ± 0.064,-0.291 ± 0.08
GAACAGCAAUAUUACGCCUU,-0.755 ± 0.13,0.356 ± 0.14
GAACAGCAAUAUUACGCGGC,-4 ± 0.43,-1.6 ± 0.23
GAACAGCAAUAUUACGCUAC,-4.08 ± 0.34,-1.64 ± 0.37
GAACAGCAAUAUUACGCUUC,-4.44 ± 0.19,-3.19 ± 0.2
GAACAGCAAUAUUACGGACG,-1.88 ± 0.11,-0.3 ± 0.12
GAACAGCAAUAUUACGGAUC,-0.794 ± 0.06,-0.441 ± 0.08
GAACAGCAAUAUUACGGAUU,-1.29 ± 0.076,-0.167 ± 0.093
GAACAGCAAUAUUACGGCAC,-0.296 ± 0.083,-0.0202 ± 0.1
GAACAGCAAUAUUACGGCAU,-0.904 ± 0.085,-0.254 ± 0.096
